Results: article PMC4242082, “Mechanistic determinants of the directionality and energetics of active export by a heterodimeric ABC transporter” (Nature Communications, 2014)
Where a chain is given by its changes, count along the chain named. In names and notes the source's numbering stands. Ends that are not written are not given here.

B1: TAP (TAP1/TAP2 complex; wt TAP) (Homo sapiens) (protein)
chain 1: MASSRCPAPRGCRCLPGASLAWLGTVLLLLADWVLLRTALPRIFSLLVPTALPLLRVWAVGLSRWAVLWLGACGVLRATVGSKSENAGAQGWLAALKPLAAALGLALPGLALFRELISWGAPGSADSTRLLHWGSHPTAFVVSYAAALPAAALWHKLGSLWVPGGQGGSGNPVRRLLGCLGSETRRLSLFLVLVVLSSLGEMAIPFFTGRLTDWILQDGSADTFTRNLTLMSILTIASAVLEFVGDGIYNNTMGHVHSHLQGEVFGAVLRQETEFFQQNQTGNIMSRVTEDTSTLSDSLSENLSLFLWYLVRGLCLLGIMLWGSVSLTMVTLITLPLLFLLPKKVGKWYQLLEVQVRESLAKSSQVAIEALSAMPTVRSFANEEGEAQKFREKLQEIKTLNQKEAVAYAVNSWTTSISGMLLKVGILYIGGQLVTSGAVSSGNLVTFVLYQMQFTQAVEVLLSIYPRVQKAVGSSEKIFEYLDRTPRCPPSGLLTPLHLEGLVQFQDVSFAYPNRPDVLVLQGLTFTLRPGEVTALVGPNGSGKSTVAALLQNLYQPTGGQLLLDGKPLPQYEHRYLHRQVAAVGQEPQVFGRSLQENIAYGLTQKPTMEEITAAAVKSGAHSFISGLPQGYDTEVDEAGSQLSGGQRQAVALARALIRKPCVLILDDATSALDANSQLQVEQLLYESPERYSRSVLLITQHLSLVEQADHILFLEGGAIREGGTHQQLMEKKGCYWAMVQAPADAPE
chain 2: MRLPDLRPWTSLLLVDAALLWLLQGPLGTLLPQGLPGLWLEGTLRLGGLWGLLKLRGLLGFVGTLLLPLCLATPLTVSLRALVAGASRAPPARVASAPWSWLLVGYGAAGLSWSLWAVLSPPGAQEKEQDQVNNKVLMWRLLKLSRPDLPLLVAAFFFLVLAVLGETLIPHYSGRVIDILGGDFDPHAFASAIFFMCLFSFGSSLSAGCRGGCFTYTMSRINLRIREQLFSSLLRQDLGFFQETKTGELNSRLSSDTTLMSNWLPLNANVLLRSLVKVVGLYGFMLSISPRLTLLSLLHMPFTIAAEKVYNTRHQEVLREIQDAVARAGQVVREAVGGLQTVRSFGAEEHEVCRYKEALEQCRQLYWRRDLERALYLLVRRVLHLGVQMLMLSCGLQQMQDGELTQGSLLSFMIYQESVGSYVQTLVYIYGDMLSNVGAAEKVFSYMDRQPNLPSPGTLAPTTLQGVVKFQDVSFAYPNRPDRPVLKGLTFTLRPGEVTALVGPNGSGKSTVAALLQNLYQPTGGQVLLDEKPISQYEHCYLHSQVVSVGQEPVLFSGSVRNNIAYGLQSCEDDKVMAAAQAAHADDFIQEMEHGIYTDVGEKGSQLAAGQKQRLAIARALVRDPRVLILDEATSALDVQCEQALQDWNSRGDRTVLVIAHRLQTVQRAHQILVLQEGKLQKLAQL
notes: full-length heterodimer from Sf9 insect cells (baculovirus), purified and reconstituted in proteoliposomes, or in membranes
B2: rat TAP1-NBD Walker B mutant (D645N) (domain or fragment)
chain: SPLSGSLAPLNMKGLVKFQDVSFAYPNHPNVQVLQGLTFTLYPGKVTALVGPNGSGKSTVAALLQNLYQPTGGKVLLDGEPLVQYDHHYLHTQVAAVGQEPLLFGRSFRENIAYGLTRTPTMEEITAVAMESGAHDFISGFPQGYDTEVGETGNQLSGGQRQAVALARALIRKPRLLILDNATSALDAGNQLRVQRLLYESPEWASRTVLLITQQLSLAERAHHILFLKEGSVCEQGTHLQLMERGGCYRSMVEALAAPSD
notes: Model system for NBD homodimerisation; also called Walker B D645N; hydrolysis-deficient Walker B mutant; source: E. coli BL21(DE3), purified (Ni-NTA, Superdex200)
B3: rat TAP1-NBD Walker B/D-loop double mutant (D645N/D651A) (domain or fragment)
chain: B2 chain with D187A
notes: D651A of rat TAP1 is equivalent to D674A of human TAP1; also called Walker B D645N/D-loop D651A; rat TAP1 NBD D645N/D651A; source: E. coli BL21(DE3), purified (Ni-NTA, Superdex200)

Assays:
[1] = substrate: Nc1ncnc2c1ncn2[C@@H]1O[C@H](COP(=O)(O)OP(=O)(O)OP(=O)(O)O)[C@@H](O)[C@H]1O; assay: ATP-dependent transport of RRYC(FL488)KSTEL in proteoliposomes; format: biochemical, Homo sapiens; conditions: peptide 1 μM, Mg2+, pH 7.4, 37 °C
Description: ATP-dependent transport of RRYC(FL488)KSTEL in proteoliposomes on TAP (TAP1/TAP2 complex; wt TAP) | the Michaelis–Menten kinetics for peptide transport by wt TAP and D674A/wt are equal

[2] = biological target: wild-type TAP (human TAP1/TAP2 complex) (human) (UniProt Q03518)
[3] = biological target: D674A/wt TAP complex (human TAP1 D674A with wt TAP2) (human) (UniProt Q03519)
[4] = biological target: the molecule itself; assay: AUC; sedimentation equilibrium, with ATP; 12,000, 15,000 and 22,000 r.p.m., 10 °C; 3, 11 and 33 μM protein; 20 mM Tris pH 8.0, 50 mM NaCl, 5 mM MgCl2; monomer-dimer self-association model (SedPhat); dimer to monomers
[5] = biological target: the molecule itself; assay: AUC; sedimentation equilibrium, with ADP; 12,000, 15,000 and 22,000 r.p.m., 10 °C; 3, 11 and 33 μM protein; 20 mM Tris pH 8.0, 50 mM NaCl, 5 mM MgCl2; monomer-dimer self-association model (SedPhat); dimer to monomers
P36370 [6] = assay: AUC; sedimentation velocity, with ATP; 33 μM protein, 40,000 r.p.m., 10 °C, 14 h; 20 mM Tris pH 8.0, 50 mM NaCl, 5 mM MgCl2; c(S) model (Sedfit)
[7] = biological target: the molecule itself; assay: as above
P36370 [8] = assay: AUC; sedimentation velocity, with ADP; 33 μM protein, 40,000 r.p.m., 10 °C, 14 h; 20 mM Tris pH 8.0, 50 mM NaCl, 5 mM MgCl2; c(S) model (Sedfit)

Binder	Km [1] [µM]	lumenal peptide concentration reached in proteoliposomes at high external peptide (for example 100 μM): trans-inhibition [2] [µM]	EC50 of lumenal peptide accumulation in proteoliposomes after 1 h at different external peptide concentrations, given as Kd of a low-affinity lumenal peptide-binding site [3] [µM]	lumenal peptide concentration reached in proteoliposomes at high external peptide (for example 100 μM): trans-inhibition [3] [µM]	Kd [4] [µM]	Kd [5] [µM]	2nd/1st ratio (dimer to monomer peaks) (P36370 [6])	stoichiometry N [7]	2nd/1st ratio (dimer to monomer peaks) (P36370 [8])
B1	99 ± 24								
RRYC(Atto633)KSTEL [Atto633-labelled peptide RRYC(AT633)KSTEL]		< 16	10.7	< 16					
B2					22.4	111	2.61	2	0.68
B3					170	164	0.11		0.26
